Ends that are not written are not given here.
target: VBC ternary complex (pVHL, Elongin B, Elongin C) (UniProt P40337 1-213; Q15370 1-104; Q15369 17-112); assay: BLI

Binder	Kd
MALKPRVV-NH2 [8-mer Cul2 peptide, Ser2 replaced by alanine]	7100 µM
MSLKPRVA-NH2 [8-mer Cul2 peptide, Val8 replaced by alanine]	500 µM
MSLKPRAV-NH2 [8-mer Cul2 peptide, Val7 replaced by alanine]	2100 µM
MSAKPRVV-NH2 [8-mer Cul2 peptide, Leu3 replaced by alanine]	2900 µM
ASLKPRVV-NH2 [8-mer Cul2 peptide, Met1 replaced by alanine]	2800 µM
